Reference: US11939397B2, “ENTPD2 antibodies, combination therapies, and methods of using the antibodies and combination therapies” (Novartis AG, priority 2018, dated 2024)

Legend:
[1] = target: T1, mouse ENTPD2 (Mus musculus, UniProt O55026); experiment: Mouse ENTPD2 NIH/3T3 cell-based functional assay
T1 construct: expressed in transfected cells
T1 sequence (O55026 1-495): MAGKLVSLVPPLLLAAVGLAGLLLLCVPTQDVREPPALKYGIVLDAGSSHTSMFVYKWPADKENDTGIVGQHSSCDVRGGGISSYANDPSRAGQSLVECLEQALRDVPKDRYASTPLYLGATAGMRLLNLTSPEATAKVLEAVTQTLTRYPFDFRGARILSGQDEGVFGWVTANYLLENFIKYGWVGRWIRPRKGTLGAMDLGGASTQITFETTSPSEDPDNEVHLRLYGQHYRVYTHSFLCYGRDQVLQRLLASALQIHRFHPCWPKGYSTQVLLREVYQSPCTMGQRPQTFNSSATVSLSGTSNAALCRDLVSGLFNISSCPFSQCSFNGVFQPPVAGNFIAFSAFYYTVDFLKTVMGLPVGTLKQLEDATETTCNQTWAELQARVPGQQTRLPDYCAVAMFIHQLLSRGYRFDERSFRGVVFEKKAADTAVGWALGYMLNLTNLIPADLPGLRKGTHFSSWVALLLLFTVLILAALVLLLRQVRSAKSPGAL
Source text: Biochemical and cell-based functional assays were developed in-house to understand functional impact of anti-ENTPD2 Abs against purified extracellular domain of ENTPD2 (residues 29-462), as well as against the fully intact protein in the context of the native cell-based conformation. ENTPD2 hydrolyzes ATP to ADP, which can subsequently be detected using the HTRF Transcreener ADP2 TR-FRET Red Assay (BellBrook Labs, Madison, WI) where ENTPD2-produced ADP would compete with the ADP Tracer for binding to the anti-ADP-Tb antibody. The resulting signal is inversely proportional to the concentration of ADP in the sample.
To establish cell-based functional assays, human/cyno/mouse ENTPD2-engineered NIH/3T3 cells or RKO (ATCC, Manassa VA) colorectal cancer cells with endogenous ENTPD2 expression were plated overnight at 150, 200 and 250 cells per well for NIH/3T3 mouse, cyno and human ENTPD2 lines, respectively, or 1000 cells per well for RKO in 384-well tissue culture plate, in 30 μl per well (Perkin Elmer, Waltham, MA). […] ADP production was detected with the Transcreener ADP2 TR-FRET Red Assay (BellBrook Labs, Madison, WI) with a final concentration of 4 nM ADP2 antibody and 13.4 nM of ADP Tracer in wells (4× solution was prepared and 5 μL of “Detection Reagent Mix” was added to the quenched conditioned media). […]

[2] = test system: B16LM3 tumor; experiment: Syngeneic B16LM3 tumor model, survival; assay type: in vivo, C57BL/6 mice; conditions: mAb13 15 mg/kg in combination with anti-PD-1 Ab 10 mg/kg i.p., days 1, 5, 8, 12, 15; relative to No Treatment, Isotype Control or anti-PD-1 Ab
Description: B16LM3 model was established in female C57BL/6 mice by subcutaneous injection of 0.5×10^6 cells into the right flank of each mouse. The day after implant mice were randomized into treatment groups (n=10 per group). Mice received treatments of either anti-mouse ENTPD2 mAb13 or a non-specific mIgG2a isotype control (clone MOPC-173, BioLegend, San Diego, CA) at a final dose 15 mg/kg on Day 1, 5, 8, 12, 15.
Anti-PD-1 Ab (clone RMP1-14 Bio X Cell, West Lebanon, NH) or non-specific rIgG2a isotype control (clone RTK2758, BioLegend, San Diego, CA) were delivered i.p. at a final dose of 10 mg/kg on days 1, 5, 8, 12, 15. All doses were adjusted to individual mouse body weights.

B1: mAb13: anti-mouse ENTPD2 monoclonal antibody, VH SEQ ID NO: 191, VL SEQ ID NO: 202 (antibody, V domains shown)
VH: QVQLVQSGAELKQPGQSVKISCKASGYTFTHYGMNWVKQAPGQGLKWMGWINTDTGNPTYADDFKGRFVFSLDTSVSTAYLQISNLKNEDTATYYCVRYGTLYSGYGFFFDSWGQGTLVTVSS
VL: DIMMTQSPSSLSVSAGEKATITCKSSQSLFNSNTNKNYLNWYLQKPGQSPKLLFYYASTRHTGVPDRFIGSGSGTDFTLTITSVQDEDLADYYCQQWYSYPWTFGPGTKLEIK
Q: What does the source list for B1?
A: % Inhibition at 100 nM (±Std Err) ([1]; 100 nM antibody, mouse ENTPD2 NIH/3T3 cells): 44 ± 7.3%; maximum target inhibition (mouse ENTPD2 inhibition) ([1]; NIH3T3-mouse ENTPD2 engineered cell line): 44%; mouse survival [2]: significantly extended mouse survival
